In the supplement of paper PMC9112550, “Optimization of the antimicrobial peptide Bac7 by deep mutational scanning” (BMC Biology, 2022):

Each sequence was assayed on Escherichia coli TOP10 (assay: shrunken log2 fold change of peptide-encoding DNA abundance (4.5 h post-induction vs induction); higher = less antimicrobial activity (less host growth inhibition)). Conditions: time post-induction: 4.5 h; library: site-saturation at positions 5, 18, 19, 20.
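Also: peptides expressed intracellularly from a pBAD plasmid library in pooled LB shake-flask culture, induced with 0.3% L-arabinose, DNA abundance read by NGS, three biological replicates, DESeq2 with apeglm shrinkage.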

Row | Sequence | shrunken log2 fold change
1 | RRIRGRPPRLPRPRPRPVKTPRP | 0.0324
2 | RRIRGRPPRLPRPRPRPVLDPRP | 0.419
3 | RRIRGRPPRLPRPRPRPVMAPRP | 0.745
4 | RRIRGRPPRLPRPRPRPVMHPRP | 0.575
5 | RRIRGRPPRLPRPRPRPVMMPRP | 0.0154
6 | RRIRGRPPRLPRPRPRPVNVPRP | 0.0488
7 | RRIRGRPPRLPRPRPRPVRPPRP | 0.994
8 | RRIRGRPPRLPRPRPRPVSQPRP | 0.795
9 | RRIRGRPPRLPRPRPRPVVSPRP | 0.62
10 | RRIRGRPPRLPRPRPRPVYRPRP | 0.15
11 | RRIRGRPPRLPRPRPRPWAHPRP | 0.0122
12 | RRIRGRPPRLPRPRPRPWASPRP | -0.00862
13 | RRIRGRPPRLPRPRPRPWCRPRP | 0.195
14 | RRIRGRPPRLPRPRPRPWDQPRP | 0.432
15 | RRIRGRPPRLPRPRPRPWHNPRP | -0.145
16 | RRIRGRPPRLPRPRPRPWIHPRP | 0.0779
17 | RRIRGRPPRLPRPRPRPWKAPRP | 0.0375
18 | RRIRGRPPRLPRPRPRPWNAPRP | 0.109
19 | RRIRGRPPRLPRPRPRPWNIPRP | -0.409
20 | RRIRGRPPRLPRPRPRPWNQPRP | -0.139
21 | RRIRGRPPRLPRPRPRPWPFPRP | 0.745
22 | RRIRGRPPRLPRPRPRPWPRPRP | 0.37
23 | RRIRGRPPRLPRPRPRPWQFPRP | 0.0819
24 | RRIRGRPPRLPRPRPRPWQTPRP | 0.174
25 | RRIRGRPPRLPRPRPRPWRNPRP | 0.297

Row | Sequence | shrunken log2 fold change
26 | RRIRGRPPRLPRPRPRPWTRPRP | -0.0814
27 | RRIRGRPPRLPRPRPRPWVNPRP | 0.0175
28 | RRIRGRPPRLPRPRPRPYARPRP | 0.416
29 | RRIRGRPPRLPRPRPRPYCSPRP | -0.0241
30 | RRIRGRPPRLPRPRPRPYDCPRP | -0.147
31 | RRIRGRPPRLPRPRPRPYDNPRP | -0.183
32 | RRIRGRPPRLPRPRPRPYELPRP | -0.036
33 | RRIRGRPPRLPRPRPRPYEYPRP | 0.127
34 | RRIRGRPPRLPRPRPRPYFGPRP | -0.335
35 | RRIRGRPPRLPRPRPRPYHPPRP | -0.559
36 | RRIRGRPPRLPRPRPRPYKIPRP | -0.618
37 | RRIRGRPPRLPRPRPRPYKPPRP | -0.571
38 | RRIRGRPPRLPRPRPRPYKQPRP | 0.025
39 | RRIRGRPPRLPRPRPRPYLQPRP | -0.182
40 | RRIRGRPPRLPRPRPRPYLSPRP | -0.0512
41 | RRIRGRPPRLPRPRPRPYNLPRP | -0.487
42 | RRIRGRPPRLPRPRPRPYNPPRP | -0.504
43 | RRIRGRPPRLPRPRPRPYPYPRP | -0.095
44 | RRIRGRPPRLPRPRPRPYQLPRP | 0.147
45 | RRIRGRPPRLPRPRPRPYQNPRP | -0.0136
46 | RRIRGRPPRLPRPRPRPYRFPRP | 0.0893
47 | RRIRGRPPRLPRPRPRPYTRPRP | -0.0484
48 | RRIRGRPPRLPRPRPRPYVPPRP | -0.529
49 | RRIRGRPPRLPRPRPRPYVWPRP | 0.131
50 | RRIRGRPPRLPRPRPRPYYEPRP | 0.0278

Row | Sequence | shrunken log2 fold change
51 | RRIRGRPPRLPRPRPRPYYFPRP | 0.0211
52 | RRIRHRPPRLPRPRPRPAAIPRP | 0.0732
53 | RRIRHRPPRLPRPRPRPAAPPRP | 0.093
54 | RRIRHRPPRLPRPRPRPACKPRP | -0.164
55 | RRIRHRPPRLPRPRPRPACWPRP | 0.375
56 | RRIRHRPPRLPRPRPRPAEFPRP | 0.108
57 | RRIRHRPPRLPRPRPRPAFLPRP | 0.305
58 | RRIRHRPPRLPRPRPRPAFQPRP | -0.0477
59 | RRIRHRPPRLPRPRPRPAIWPRP | 0.137
60 | RRIRHRPPRLPRPRPRPAKQPRP | 0.307
61 | RRIRHRPPRLPRPRPRPALCPRP | 0.174
62 | RRIRHRPPRLPRPRPRPALRPRP | 0.269
63 | RRIRHRPPRLPRPRPRPANKPRP | -0.291
64 | RRIRHRPPRLPRPRPRPANTPRP | -0.0313
65 | RRIRHRPPRLPRPRPRPAPGPRP | 0.536
66 | RRIRHRPPRLPRPRPRPAPWPRP | 0.0941
67 | RRIRHRPPRLPRPRPRPAREPRP | 0.256
68 | RRIRHRPPRLPRPRPRPARWPRP | 0.386
69 | RRIRHRPPRLPRPRPRPASFPRP | -0.215
70 | RRIRHRPPRLPRPRPRPATGPRP | -0.276
71 | RRIRHRPPRLPRPRPRPATHPRP | -0.105
72 | RRIRHRPPRLPRPRPRPATRPRP | 0.0209
73 | RRIRHRPPRLPRPRPRPAVAPRP | 0.117
74 | RRIRHRPPRLPRPRPRPAVLPRP | 0.0684
75 | RRIRHRPPRLPRPRPRPAVYPRP | -0.0534
